According to the supplement of paper PMC10201428:
± gives the standard deviation of the averaged measurements.

B1: library; a variant is named by its letters at N, in order (parent)
chain: AATGTTGTTGATGCAACCATAAAGTGATATTTAATAATTATTTATAATCAGCAACTTAACCACAAAACAACCATATATTGATATNTCACAAAACAACCATAANTTGATATTTTTGTGAATCGAGTATTTCAGCAAAACTACTGCAGTAAGAA

Experiments:
[1] = variants of: B1; experiment: relative integration efficiency (T-LR orientation) vs wild-type transposon end (log2 (normalized fold change)); transposon end mutated: left end; higher = more efficient transposition; conditions: with VchCAST RNA-guided transposition machinery (E. coli BL21(DE3) host, lacZ target)
Protocol: (§1)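 Pooled, barcoded VchCAST (Tn6677) mini-transposon donor libraries; each variable transposon-end sequence sits in a fixed pDonor mini-transposon context (10-bp barcode and cargo not included). Left- or right-end libraries were co-transformed with pEffector (TniQ-Cascade, TnsABC, lacZ crRNA, T7, 0.1 mM IPTG) into E. coli BL21(DE3) and grown 18 h at 37 C. T-LR and T-RL junction amplicons were sequenced; output/input barcode fold change was normalised to the mean of four wild-type barcodes and log2-transformed. Two biological replicates; zero-count/undetected variants carry floor values (-10 / -15), censored here. Barcode uncoupling by PCR recombination adds noise.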

[2] = variants of: B1; experiment: relative integration efficiency (T-RL orientation) vs wild-type transposon end (log2 (normalized fold change)); transposon end mutated: left end; higher = more efficient transposition; conditions: with VchCAST RNA-guided transposition machinery (E. coli BL21(DE3) host, lacZ target)
Protocol: as §1

| Variant | relative integration efficiency (log2) [1] | relative integration efficiency (log2) [2] |
| --- | --- | --- |
| TA A23G G24T A33T T76A T78G C87A A96C T112G T113C | 0.535 ± 0.16 | 0.327 ± 0.1 |
| TA A22T G24T T31C A33C T76A T78G C87A A96C T110A T113A | -0.606 ± 0.66 | -0.329 ± 0.25 |
| CA A16C G24T T30A A96C T112G T113C | -0.699 ± 0.71 | -0.628 ± 0.18 |
| TA A22T G24T T31C A33C T76A T78A T84A C87A A102T T111C T113C | -0.838 ± 1.2 | -0.485 ± 0.43 |
| TA A16C G24T T30A A70C T76A T86G T104G T113A | -0.388 ± 0.33 | -0.652 ± 0.39 |
| TA A22T G24T T31C A33C T76A T78A T84A C87A A96C T110A T113A | -0.768 ± 1.2 | -0.365 ± 0.32 |
| TA A16C G24T T32G A33C A70C T76A T84A C87A A96C T110A T113A | -0.499 ± 1.2 | -0.0812 ± 0.47 |
| CA A16C G24T T32G A33C A96C T112G T113C | -1.27 ± 0.78 | -0.695 ± 0.12 |
| TA A22T G24T T31C A33C T76A A77G C87T T104G T113A | -1.13 ± 0.85 | -1.41 ± 0.56 |
| TA A16C G24T T32G A33C T76A T78G C87A T104G T113A | -0.174 ± 1.1 | -0.675 ± 0.24 |
| TA A22T G24T T31C A33C A70C T76A T84A C87A T104A T110A T113A | -0.378 ± 0.91 | -0.553 ± 0.35 |
| TA A16C G24T T32G A33C A70C T76A T86G T104A T110A T113A | -0.474 ± 0.24 | -0.791 ± 0.56 |
| TA A22T G24T T31C A33C A70C T76A T84A C87A A96C T112G T113C | -0.665 ± 0.33 | -0.334 ± 0.36 |
| TA A22T G24T T31C A33C T76A A77G C87T A96C T112G T113C | -0.0329 ± 0.84 | -0.66 ± 0.42 |
| TA A23G G24T A33T T76A T78A T84A C87A T104A T110A T113A | 0.471 ± 0.38 | 0.117 ± 0.25 |
| TA A16C G24T T30A T76A A77G C87T T104G T113A | -0.204 ± 0.73 | -0.483 ± 0.46 |
| TA A23G G24T A33T T76A A77G C87T A102T T111C T113C | -0.439 ± 0.39 | -0.836 ± 0.54 |
| TA A16C G24T T32G A33C T76A T78A T84A C87A T104G T113A | -0.166 ± 0.52 | -0.296 ± 0.42 |
| TA A23G G24T A33T T76A T78G C87A A96C T110A T113A | 0.938 ± 0.63 | 0.884 ± 0.19 |
| CA A16C G24T T32G A33C T104A T110A T113A | -0.927 ± 0.11 | -0.976 ± 0.39 |
| TA A16C G24T T32G A33C A70C T76A T84A C87A A102T T111C T113C | -1.61 ± 0.92 | -0.84 ± 0.38 |
| TA A16C G24T T30A A70C T76A T86G A102T T111C T113C | -0.48 ± 1.4 | -0.134 ± 0.32 |
| CA A22T G24T T31C A33C T104A T110A T113A | -0.859 ± 0.31 | -0.686 ± 0.34 |
| TA A23G G24T A33T T76A A77G C87T A96C T110A T113A | -0.603 ± 0.67 | -0.516 ± 0.48 |
| TA A16C G24T T30A T76A T78G C87A T104A T110A T113A | -0.00394 ± 0.69 | -0.0421 ± 0.16 |
| TA A16C G24T T32G A33C T76A T78G C87A T104A T110A T113A | -0.325 ± 0.88 | -0.13 ± 0.49 |
| TA A16C G24T T30A T76A T78A T84A C87A A96C T112G T113C | -0.55 ± 0.9 | -0.0685 ± 0.46 |
| TA A16C G24T T32G A33C A70C T76A T86G A96C T110A T113A | -0.842 ± 0.018 | -0.63 ± 0.38 |
| TA A23G G24T A33T T76A T78A T84A C87A A102T T111C T113C | -0.26 ± 0.5 | 0.131 ± 0.23 |
